System: MS2 coat protein
Test: apparent KD of MS2 coat protein; designed switch direction (-1 OFF switch, 1 ON switch): -1; higher = weaker reporter binding
Summary of the method: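 The buffer was Tris-HCl pH 7.5 with KCl, MgCl2, BSA, DTT, tRNA and Tween-20. In it, SNAP-549-labelled MS2 coat protein was titrated in doubling steps from 0.7 or 1.5 nM to 3 µM over chip-bound RNA switches transcribed by stalled E. coli RNA polymerase on Illumina chips. Apparent KD is the per-design median over clusters of curve fits to normalised fluorescence.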

[1] = input ligand: microRNA oligo, concentration not stated
[2] = Eterna round: R95, input ligand: FMN 200 uM
[3] = Eterna round: R95, input ligand: microRNA oligo, concentration not stated
[4] = Eterna round: R95, input ligand: none

Sequence	apparent KD of MS2 coat protein (input ligand: FMN 200 uM)	apparent KD of MS2 coat protein [1]	apparent KD of MS2 coat protein (input ligand: none)	apparent KD of MS2 coat protein [2]	apparent KD of MS2 coat protein [3]	apparent KD of MS2 coat protein [4]
AGCCUGUAAGUAGGAUAUAUGAUCAGGAAUGAAAUAGAAGGGCUUAGUGGACAUGAGGAUCACCCAUGUCAAUGGGUUCAUGCA [Edria] (Eterna round: R96, puzzle: Exclusion NG 1)	15 nM	16 nM	22.5 nM			
ACUCGACAUGAGGAUCACCCAUGUGAGGAUAUGGCCUGUAUGGCGUGAGCUGGCUAAAUCAGAAGGCGCGUGGG [salish99_ex1_r4_049] (Eterna round: R97, puzzle: Exclusion 1)	222 nM		194 nM			
AUUUUGUGAGGAUAUGUGGCUUCGAUCGUGAAAUCGAGGCUACAGAAGGCACAUGAGGAUCACCCAUGUUCCUA [salish99_ex4_r4_117] (Eterna round: R97, puzzle: Exclusion 4)	178 nM		19.6 nM			
AAGUACCGUCACGAUAGUGAUGGUACAACAAGCAAGUGUACAUGAGGAUCACCCAUGUCCUCUUUUGCUCGUCUUAU [Sensor 3 - 95] (puzzle: Sensor v3, turn-off variant 2)				19.7 nM	16.9 nM	18.6 nM
UUAUUAAUUAAGACUGCAAGAUCACAUGAGGAUCACCCAUGUCAGGAUAUCAGCUCGUUUAGAGCUGAGAAGGGACAAGCAGUC [ExNG3/15-A2] (Eterna round: R96, puzzle: Exclusion NG 3)	337 nM	98 nM	94.4 nM			
AAGUACCGUCACGAUAGUGAUGGUACAACAAGCAGUGACACAUGAGGAUCACCCAUGUCCUCAAUUGCUCGUCUUAU [Sensor 3 - 76] (puzzle: Sensor v3, turn-off variant 2)				179 nM	383 nM	156 nM
AAACGGCGGAUCGUGGCUUUUUGCUCGUCUUGUGCUUCGACAUGAGGAUCACCCAUGUGGUGGUGAUCCGUUGUAAA [Grok-var2-16 mod JAL] (Eterna round: R96, puzzle: Sensor v3, turn-off variant 2)	537 nM	12.4 nM	84 nM			
GGGCUAGAAGGAGGAUAUUGAAGAUCCUCACGACAUGAGGAUCACCCAUGUGGUUUAGCAAGGGCCAAGAAGGCCUAUAGCCCA [Zasoan] (Eterna round: R96, puzzle: Exclusion NG 2)	111 nM	52.1 nM	77.3 nM			
AUAAAUCAUGUAGGAUAUGCAUAGCAAAGCUAUGCAGAAGGACAUGAGGAUCACCCAUGUCAUUCCGUCUGGAGACAGACGGGA [Mat - Exclusion NG 1 - Mod of JL - D57] (Eterna round: R96, puzzle: Exclusion NG 1)	129 nM	26.4 nM	32 nM			
CAUCAGGGAGGAUAUACAUAACUAAAAGGCUAGCAGUCCGUACAUGAGGAUCACCCAUGUAGAAGGCCCGAGUA [EX2 B.6] (Eterna round: R97, puzzle: Exclusion 2)	46.9 nM		20 nM			
GUCACGUAAGGAUAUCAUUAGUUGGACAUGAGGAUCACCCAUGUGAGACUAACUCCGGCGUGAGAAGGUGCGUUAA [Arorza] (puzzle: Exclusion 5)					12 nM	
AAGAAACAUGAGGAUCACCCAUGUGAGGAUAUGACGAAGAAAAGAAAAGAAAGAAGAUUCAGAAGGCACAAAGG [salish99-ex1_r3_061] (puzzle: Exclusion 1)				90.1 nM	42.9 nM	56.4 nM
GAAAACGCAGGAUAUUAAUACUUAUACAUGAGGAUCACCCAUGUUUAUUGGGAUUAAGAAUAAGAAGGGCGAUGAA [EX5 #1] (Eterna round: R97, puzzle: Exclusion 5)	30.8 nM		24 nM			
AGGGACUAAGGAUAUACUUAGGAGAUAAACGACUGGUGAACACUUGAGGAUCACCCAAGUAGAAGGUAGUCAAA [Enonsoor] (Eterna round: R97, puzzle: Exclusion 2)	135 nM		30.4 nM			

Reference: the supplement of paper PMC9170038
